Experimental data taken from patent US20230055408A1 (JIANGSU HENGRUI MEDICINE, published 2023).
Read-outs that look alike come from different tables or passages of the source.

T1: human CEA protein on the cell surface (human, UniProt P06731 35-685)
T1 construct: whole, on cells; also called CEACAM-5; CD66e
T1 sequence (looked up): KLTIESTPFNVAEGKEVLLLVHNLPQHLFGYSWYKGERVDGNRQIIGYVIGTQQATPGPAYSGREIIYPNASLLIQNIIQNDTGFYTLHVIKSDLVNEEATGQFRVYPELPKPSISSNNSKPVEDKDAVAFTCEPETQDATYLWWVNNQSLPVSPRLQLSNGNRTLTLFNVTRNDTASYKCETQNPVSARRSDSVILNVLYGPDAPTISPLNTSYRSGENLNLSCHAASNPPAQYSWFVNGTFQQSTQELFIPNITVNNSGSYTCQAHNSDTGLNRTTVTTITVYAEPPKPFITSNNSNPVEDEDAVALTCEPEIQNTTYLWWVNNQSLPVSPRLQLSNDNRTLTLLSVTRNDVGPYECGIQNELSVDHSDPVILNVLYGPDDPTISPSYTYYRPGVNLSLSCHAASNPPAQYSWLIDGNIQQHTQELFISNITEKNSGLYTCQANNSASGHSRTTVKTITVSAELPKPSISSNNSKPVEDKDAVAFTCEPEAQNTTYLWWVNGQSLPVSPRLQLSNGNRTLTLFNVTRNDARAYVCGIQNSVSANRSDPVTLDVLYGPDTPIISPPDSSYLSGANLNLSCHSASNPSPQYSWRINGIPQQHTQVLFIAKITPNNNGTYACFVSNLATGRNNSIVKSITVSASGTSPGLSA

T2: human CEACAM1 expressed on CHO cell surface (human, UniProt P13688 35-526)
T2 construct: also called CEACAM1-CHO
T2 sequence: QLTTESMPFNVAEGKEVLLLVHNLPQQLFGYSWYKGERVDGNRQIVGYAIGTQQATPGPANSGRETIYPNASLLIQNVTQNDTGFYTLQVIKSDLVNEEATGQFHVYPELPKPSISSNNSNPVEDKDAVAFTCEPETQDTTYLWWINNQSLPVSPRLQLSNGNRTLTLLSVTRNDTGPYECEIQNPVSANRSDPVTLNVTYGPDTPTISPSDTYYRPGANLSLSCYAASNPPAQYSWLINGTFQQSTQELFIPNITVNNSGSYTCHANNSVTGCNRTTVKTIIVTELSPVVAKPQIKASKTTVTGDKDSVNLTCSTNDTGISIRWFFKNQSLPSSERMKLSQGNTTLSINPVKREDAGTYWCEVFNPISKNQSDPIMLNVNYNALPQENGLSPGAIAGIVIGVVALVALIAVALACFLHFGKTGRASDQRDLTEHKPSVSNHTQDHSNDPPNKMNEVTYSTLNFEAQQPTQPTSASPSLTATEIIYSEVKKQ

T3: monkey CEA expressed on CHO cell surface (cynomolgus monkey)
T3 construct: also called cynoCEA-CHO; monkey CEA proteins on the cell surface
T3 chain: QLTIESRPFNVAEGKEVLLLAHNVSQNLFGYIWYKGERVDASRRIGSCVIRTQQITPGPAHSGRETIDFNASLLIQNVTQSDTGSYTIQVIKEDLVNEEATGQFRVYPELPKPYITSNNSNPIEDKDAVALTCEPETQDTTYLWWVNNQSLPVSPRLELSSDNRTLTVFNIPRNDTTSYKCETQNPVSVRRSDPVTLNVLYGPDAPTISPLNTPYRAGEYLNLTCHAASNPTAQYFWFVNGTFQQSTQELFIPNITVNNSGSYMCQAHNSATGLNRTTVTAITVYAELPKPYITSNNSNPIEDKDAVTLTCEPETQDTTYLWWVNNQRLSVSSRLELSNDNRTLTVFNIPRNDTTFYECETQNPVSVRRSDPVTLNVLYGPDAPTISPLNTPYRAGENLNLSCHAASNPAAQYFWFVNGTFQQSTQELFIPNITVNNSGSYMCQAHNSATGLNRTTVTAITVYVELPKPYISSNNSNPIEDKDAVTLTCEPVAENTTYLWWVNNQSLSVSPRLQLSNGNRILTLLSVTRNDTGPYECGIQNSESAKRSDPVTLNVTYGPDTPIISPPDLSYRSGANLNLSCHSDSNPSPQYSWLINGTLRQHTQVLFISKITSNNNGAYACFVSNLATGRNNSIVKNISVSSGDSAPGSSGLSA

T4: human soluble CEA (human, UniProt P06731 35-685, limits assumed)
T4 construct: also called sCEA
T4 sequence (looked up): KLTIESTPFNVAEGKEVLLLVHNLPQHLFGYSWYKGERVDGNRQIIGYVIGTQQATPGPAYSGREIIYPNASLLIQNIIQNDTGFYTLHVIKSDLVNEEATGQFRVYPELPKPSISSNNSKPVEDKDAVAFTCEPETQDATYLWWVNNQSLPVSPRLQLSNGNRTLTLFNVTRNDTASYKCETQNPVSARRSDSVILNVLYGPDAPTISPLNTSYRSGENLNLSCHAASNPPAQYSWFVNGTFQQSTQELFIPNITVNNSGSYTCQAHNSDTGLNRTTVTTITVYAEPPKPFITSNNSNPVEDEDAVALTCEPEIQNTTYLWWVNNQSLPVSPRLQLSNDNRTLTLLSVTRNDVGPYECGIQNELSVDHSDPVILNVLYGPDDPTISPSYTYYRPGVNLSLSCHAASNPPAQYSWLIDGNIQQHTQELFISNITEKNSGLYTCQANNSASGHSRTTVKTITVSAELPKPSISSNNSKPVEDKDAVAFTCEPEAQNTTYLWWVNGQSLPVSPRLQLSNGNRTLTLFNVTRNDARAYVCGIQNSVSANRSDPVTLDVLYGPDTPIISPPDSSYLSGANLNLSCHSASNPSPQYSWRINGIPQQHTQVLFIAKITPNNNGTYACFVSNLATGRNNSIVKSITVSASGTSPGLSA

B1: Hu47-14 (antibody, human IgG1, kappa, V domains shown)
VH: EVQLVQSGSELKKPGASVKVSCKASGYTFTTYGMSWVKQAPGQGLKWMGWINTYSGVPTYASDFKGRFVFSLDTSVSTAYLQISSLKAEDTAVYYCARRGNYGRWDFDVWGQGTTVTVSS
VL: EIVLTQSPDFQSVTPKEKVTITCSVSSTISSSNLHWYQQKPDQSPKPLIYGTSNLASGVPSRFSGSGSGTDYTLTINSLEAEDAATYYCQQWSIYPLTFGQGTKLEIKR
notes: Humanized IgG1/kappa; h47VH4 + h47VL2
B2: Hu63-13 (antibody, human IgG1, kappa, V domains shown)
VH: EVQLVQSGAEVKKPGASVKVSCKASGYTFTDFYMNWVRQAPGQGLEWMGDIFPKSGNTDYNRKFKDRVTMTRDTSTSTVYMELSSLRSEDTAVYYCARSGYGNYVFDYWGQGTLVTVSS
VL: DIQMTQSPSSLSASVGDRVTITCRTSQDINIYLNWYQQKPGKAPKLLIYYRSGLLSGVPSRFSGSGSGTDFTLTISSLQPEDFATYYCQQGNTLPPTFGGGTKVEIKR
notes: Humanized IgG1/kappa; h63VH5 + h63VL1
B3: Hu67-14 (antibody, human IgG1, kappa, V domains shown)
VH: EVQLVQSGAEVKKPGESLKISCKGSGYSFTDYHMNWVKQMPGKGLEWMGDINPDIGGTSYNQNFKGKVTISVDKSISTAYLQWSSLKASDTAMYYCARWDFDSFANWGQGTLVTVSS
VL: DIQMTQSPSSLSASVGDRVTITCRASESVSIIGTNLIHWYQQKPGKAPKLLIYHASNLETGVPSRFSGSGSGTDFTLTISSLQPEDFATYYCLQSRKIPYTFGGGTKVEIKR
notes: Humanized IgG1/kappa; h67VH3 + h67VL4
B4: Labetuzumab (antibody, human IgG1, kappa, V domains shown)
VH: EVQLVESGGGVVQPGRSLRLSCSASGFDFTTYWMSWVRQAPGKGLEWIGEIHPDSSTINYAPSLKDRFTISRDNAKNTLFLQMDSLRPEDTGVYFCASLYFGFPWFAYWGQGTPVTVSS
VL: DIQLTQSPSSLSASVGDRVTITCKASQDVGTSVAWYQQKPGKAPKLLIYWTSTRHTGVPSRFSGSGSGTDFTFTISSLQPEDIATYYCQQYSLYRSFGQGTKVEIKR
notes: Positive control antibody; also called Lmab; antibody in Lmab-CL2A-SN38
B5: Hu103-32 (antibody, human IgG1, lambda, V domains shown)
VH: EVQLVQSGSELKKPGASVKVSCKASGYTFTTYGVIWVRQAPGQGLEWMGWINTYSGVPTYASDFKGRFVFSLDTSVSTAYLQISSLKAEDTAVYYCARKKTLTTVTPWFAYWGQGTLVTVSS
VL: ELVLTQSPSASASLGASVKLTCTLSSQHSTYTIEWYQQQPEKGPRYVMELKKDGSHSTGEGIPDRFSGSSSGAERYLTISSLQSEDEADYYCGVGNTIKEQFVYVFGGGTKLTVLG
notes: Humanized IgG1/lambda; h103VH4 + h103VL8
B6: mAb63 (antibody, V domains shown)
VH: EVQLQQSGPELVKPGASVKMSCKASGYTFTDFYMNWVRQSHGKSLEWIGDIFPKNGNTDYNRKFKDKATLTVDKSSNTVYMEFRSLTLEDSAIYFCARSGYGNYVFDYWGQGTIFTVSS
VL: DVQMTQTPSALSASLGDRVTISCRTSQDINIYLNWYQQKPDGTVKLLIYYRSGLLSGVPSRFSGSGSGTDYSLTISNLEPEDIATYFCQQGNTLPPTFGGGTKLEIK
notes: Murine hybridoma antibody
B7: mAb103 (antibody, V domains shown)
VH: QIQLVQSGPELKKPGETVKISCKASGYTFTTYGVIWVKQAPGKGLKWMGWINTYSGVPTYADDFKGRFAFSLETSASTAFLQINNLKNEDTATYFCARKKTLTTVTPWFAYWGQGTLVTVSA
VL: DLVVTQSSSASFSLGASAKLTCTLSSQHSTYTIEWYQQQPLKPPKYVMELKKDGSHSTGDGIPDRFSGSSSGADRYLTISNIQPEDEAIYICGVGNTIKEQFVYVFGGGTKVTVL
notes: Murine hybridoma antibody
B8: mAb67 (antibody, V domains shown)
VH: EVQLQQSGPELVKPGASVKIYCKASGYTFTDYHMNWVKQSHGKSLEWIGDINPDIGGTSYNQNFKGKATLTVDKSSSTAYMELRSLTSEDSAVYYCSRWDFDSFANWGQGTLVTVSA
VL: DIVMTQSPASLAMSLGKRATISCRASESVSIIGTNLIHWYQQKPGQPPKLLIYHASNLETGVPARFSGSGSGADFTLTIDPVEGDDVALYYCLQSRKIPYTFGGGTKMEIK
notes: Murine hybridoma antibody
B9: mAb47 (antibody, V domains shown)
VH: QIQLVQSGPELKKPGETVKISCKASGYTFTTYGMSWVKQAPGKGLKWMGWINTYSGVPTYADDFKGRFAFSLETSASTAYLQINNLKNEDTATYFCARRGNYGRWDFDVWGTGTTVTVSS
VL: EIVLTQSPALMAASPGEKVTITCSVSSTISSSNLHWYQQKSETSPKPWIYGTSNLASGVPVRFSGSGSGTSYSLTISSMEAEDAATYYCQQWSIYPLTFGAGTKLELK
notes: Murine hybridoma antibody

Tests used:
[1] = molecular target: T1, human CEA protein on the cell surface; experiment: FACS, MKN45 cells
[2] = molecular target: T2, human CEACAM1 expressed on CHO cell …; experiment: FACS, CEACAM1-CHO cells
[3] = molecular target: T3, monkey CEA expressed on CHO cell surface; experiment: FACS, cynoCEA-CHO cells
human soluble CEA = molecular target: T4, human soluble CEA; experiment: SPR (Biacore T200), antibody captured, soluble CEA as analyte, 1:1 Langmuir
Method: The affinity of a test humanized antibody for human and monkey soluble CEA was determined using a Biacore (GE, T200) instrument. According to the method in the instructions of a human antibody capture kit (GE, Cat #BR-1008-39), the human antibody capture antibody was covalently conjugated to a biosensor chip CM5 (GE, Cat #BR-1005-30) of the Biacore instrument to affinity-capture a certain amount of the test antibody, then a series of concentration gradients of soluble CEA antigens were allow to flow through the surface of the chip, and reaction signals were detected in real time using Biacore, so that an association and dissociation curve was obtained. After each cycle of dissociation was completed, the biochip was washed and regenerated with a regeneration solution prepared in the human antibody capture kit. The data obtained from the experiment were fitted with the (1:1) Langmuir model using BIAevaluation version 4.1 software to obtain affinity values.

[4] = molecular target: T1, human CEA protein on the cell surface; experiment: FACS, MKN45 cells; remark: listed apart in the source
[5] = molecular target: T2, human CEACAM1 expressed on CHO cell …; experiment: FACS, CEACAM1-CHO cells; remark: listed apart in the source
[6] = molecular target: T3, monkey CEA expressed on CHO cell surface; experiment: FACS, cynoCEA-CHO cells
[7] = molecular target: T1, human CEA protein on the cell surface; experiment: FACS, MKN45 cells, -/+ 5 ug/mL sCEA as competitor
Method: The gradient-diluted antibody and the pre-incubated mixed solution of the antibody and sCEA was added into each well. The plate was incubated at 4° C. for 60 min and centrifuged, and the supernatant was removed. The cells were washed twice with pre-cooled PBS containing FBS at final concentration 10%. 50 μL of 1:200 diluted secondary antibody Alexa Fluor@488 goat anti-human IgG (H+L) (Lifetechologies, Cat #A11013) was added. […] The cells were washed twice with 250 μL of pre-cooled PBS with FBS at final concentration 10%. 100 μL of pre-cooled PBS was added to each well to resuspend the cells. The suspension was analyzed by a flow cytometer (FACS) (BD, FACSverse) for fluorescence signal values.

Row | Binder | EC50 [1] | binding result [2] | EC50 [3] | Kd (human soluble CEA) | binding result [3] | EC50 [4] | binding result [5] | EC50 [6] | maximum ratio of fluorescence signals (absence of sCEA / presence of sCEA) [7]
1 | B1 | 4.19 nM | no binding | 2.7 nM | 1430 nM | – | – | – | – | –
2 | B2 | 2.93 nM | no binding | 1.71 nM | 144 nM | – | – | – | – | –
3 | B3 | – | no binding | 2.89 nM | 228 nM | – | – | – | – | –
4 | B4 | 2.45 nM | no binding | – | 5.93 nM | no binding | – | – | – | –
5 | B5 | 1.79 nM | no binding | – | 31.1 nM | – | – | – | – | –
6 | B6 | – | – | – | – | – | 3.62 nM | no binding | 2.88 nM | 1.43
7 | B7 | – | – | – | – | – | 3.94 nM | no binding | 0.71 nM | 1.02
8 | B8 | – | – | – | – | – | 1.9 nM | no binding | 6 nM | –
9 | B9 | – | – | – | – | – | 2.1 nM | no binding | 1.66 nM | –
